# Results as given in the DeepSol protein solubility set.
# Test: soluble on expression in E. coli; label from the status in PepcDB or PDB records
row,Sequence,soluble on expression in E. coli
1,MGSDKIHHHHHHMDYLTTNKIAWDARTRVHLTSDFYDVEGFLSGKISLTEIELNELAVAGKSLLHLQCHFGLDTLSWARMGAKVTGVDLSEVAIAEACKLAQQTQLSAEFICSDVYSVVGKVEPQDIVFTSYGAIVWLPDLTLWAQTIAACLKPGGQFYMAEFHPAQQLFDGYSYFNRGEPDIEQEGTYTENASDDQQTLMCWSHSLSEVINALLQAGLELVFFHEFAFSPYNCFEGLEAQADGRYVLIHQGQQVPLVYSISARKPV,not soluble
2,MAHHHHHHMVRKVWIGQGDVVLVSKRSFNKNDIVDVIHRYNPAEVRALVKDEVIPRDFRSSDERDAKNAHSDYVFVAENDDDGGADDDDQNVLDRNKVVLDDPLATFDEL,not soluble
3,MGSDKIHHHHHHMDAKTIDNRIRRAFNGIRQAFRGKIARVKAAGGVQQIQVEGLEGETVQDLEHAENFGFTSNPPAGSDCVVVPLGGKTSHGIIVTTTNGAYRITGLAEGETAVYNADGAKMVLKKGRIIEIDCETLNIKAPGGVNIDAPNVGCTAQITAEGQINGNGGMAVKGGSGTSFTGNVQMVGDLDTTGKLTNNGKNVGSDHKHNGDSGGTTSDPL,not soluble
4,QLTPTFYDNSCPNVSNIVRDTIVNELRSDPRIAASILRLHFHDCFVNGCDASILLDNTTSFRTEKDAFGNANSARGFPVIDRMKAAVESACPRTVSCADLLTIAAQQSVTLAGGPSWRVPLGRRDSLQAFLDLANANLPAPFFTLPQLKDSFRNVGLNRSSDLVALSGGHTFGKNQCRFIMDRLYNFSNTGLPDPTLNTTYLQTLRGLCPLNGNLSALVDFDLRTPTIFDNKYYVNLEEQKGLIQSDQELFSSPNATDTIPLVRSFANSTQTFFNAFVEAMDRMGNITPLTGTQGQIRLNCRVVNSNSLLHDMVEVVDFVSSM,soluble
5,MVKKMCQDYLSSSGLCSQETLEINNDKVAESLGITEFLRKKEIHPDNLGPKHLSRDMDGEQLEGASSEKREREAAEEGLASVKRPRREALSNDTTESLAANSRGREKPRPLHALAAGTIVSQEEDIVTVTDAEGRACGWAR,soluble
6,MGSDKIHHHHHHMPELATREFWKDLQPIPDCFKPDAKPEVYLRNAPTEDERLYVPFTETVKSRPLWISPSENRWCDILMATSAGLVNRHYHPHEVFAYTISGKWGYLEHDWTATAGDFVYETPGEGHTLVAYEHEQPMRAFFIVKGPLVWLDEKGNADGIFDVHDYIAMCREHYDKIGVGAAYIDSLFR,not soluble
7,MAGRKSSRTAERVPTTQKPERKSAILSPHDELRERLLETAIDMKENIPQRNTRNSSVGSQKSDCSETRKRRSTKEGPAAKRHSGEKHRNGSREDSLEYISDDREVGSSSSQSSRTRGQPLPAMPEEEEVFDKSSSSDNLAESEESHEMVRLEERQDIEEEIEDDFDDEEEDVVNDKEEYEEIESEDEDDYPVQNEGFAVTKRLMNDEHMVTAPTFLSTAKCDGIGSPTKVWSLMVKRDEIPRATRFLLGNHPDMDDEKRRILIDWMMEVCESEKLHRETFHLAVDYVDRYLESSNVECSTDNFQLVGTAALFIAAKYEEIYPPKCIDFAHLTDSAFTCDNIRTMEVLIVKYIGWSLGPITSIQWLSTYLQLLGTGKKNKSDHYEEQNMYVPELLRSEYLEMCKILDFLLFEIDSFTFSYRTIAAAVLFVNYEPTCAVEKATGFMQAQLEKVIEYVEPVCRAFAKQRQLLDDVIPKHESIKSDDSHNIQVYVKRSSMEPIVKSERERIQHLKARRLHPQRLF,not soluble
8,MGSDKIHHHHHHMLKIYVVDNGGQWTHREWRVLRELGVDTKIVPNDIDSSELDGLDGLVLSGGAPNIDEELDKLGSVGKYIDDHNYPILGICVGAQFIALHFGASVVKAKHPEFGKTKVSVMHSENIFGGLPSEITVWENHNDEIINLPDDFTLAASSATCQVQGFYHKTRPIYATQFHPEVEHTQYGRDIFRNFIGICASYREIQKENFQH,soluble
9,MGSDKIHHHHHHNSISDSEVHVMVKTFEGHHVNRLEVLKNTWASDVSRIEYCSDKEDPAIPTINLGVDNTDRGHCAKTWEIFRRFLGSSGNGAKWLVVADDDTLMNFKRLKQMLELYDSGDKIIIGERYGYGFSLNGDSGYDYPTGGSGMIFTRSAVESLLAQCPSCIANTDPDDMTIGICALTAGIPIVHESRLHQARPLDYAPEYIKYPISFHKFTDIDPISVYYEYLVELEEYN,not soluble
10,MGSDKIHHHHHHMDIIREITPLSEKDCFYIVDRRKTEFTYPIHCHSEYELNFIEHAPGVRRVVGDSAEVIGEYELVLITGKELEHVWEQNACKSPLIHEITIQFSPDLFGKNLLEKNQFNSIRKMLEKAQCGISFPMSSILKVYHLLEKLVSEEQSFYAVINFLTILYELSVEENYKVLASSSFAKITDIHSESRRIQKVQNYINERYQQDIRLNQLAELVGMAPSAFSRFFKLRTGKTLSDYITDIRIGYAARMLVDTQRSIAEICYDCGFNNLSNFNRIFKKKKNCSPKEFRDNYKKTKIIV,not soluble
11,GSGAVSIASSKVSAQYTSTVPPSHYIETWAKTHPEWKAVEVATGFLGSQKIVTEDWTYKKLNETANQVANLIIHASLHGRAIAVSLDRSLIAFAIIVGIMKSGNTYVPIEAGLPNDRKSFLLRDSRAAMAFVCDNNFDGVELPPETKVLDTKNQSFIENLSTQDTSDILNNYPENLDAYLLYTSGSTGTPKGVRVSRHNLSSFSDAWGKLIGNVAPKSLELGGVGKFLCLASRAFDVHIGEMFLAWRFGLCAVTGERLSMLDDLPRTFRELGVTHAGIVPSLLDQTGLVPEDAPHLVYLGVGGEKMTPRTQQIWSSSDRVALVNVYGPTEVTIGCSAGRILPDSDTRCIGHPLGDSVAHVLAPGSNEHVKKGMAGELVIEGSLVANGYLNRPDAKGFCDINGRKMYRTGDIVRMDADSSILFLGRKDEQVKVRGQRLELGEVSEVIRSLSPTDIDVVTLLLNHPGTSKQFLVSFVASSGAAVRGELRWINENYKEINNSLRQACEQTLPAYMVPDFIIPISFIPLRDTSAKTDAKALEHMFHTLSLGELFGESSSLVNKPTT,soluble
12,MKVLNELRQFYPLDELLRAAEIPRSTFYYHLKALSKPDKYADVKKRIGEIYHENRGRYGYRRVTLSLHREGKQINHKAVQRLMGTLSLKAAIKVKRYRSYRGEVGQTAPNVLQRDFKATRPNEKWVTDVTEFAVNGRKLYLSPVIDLFNNEVISYSLSERPVMNMVENMLDQAFKKLNPHEHPVLHSDQGWQYRMRRYQNILKEHGIKQSMSRKGNCLDNAVVECFFGTLKSECFYLDEFSNISELKDAVTEYIEYYNSRRISLKLKGLTPIEYRNQTYMPRV,not soluble
13,AIALVEDSGHHLPESADIENALDLLLKAQLERAFGPELAEHFWAARQPRTLDERLAFIRKCWIGVFKDSPLSTFGLERLEQLERLCRSKRRGRELSAAEHHQFAEELARLWEQVQRLLPRAAPETSYASSASAGGVHSGDAHTPATLSDAESAHAAPEAMRIEAPATSARSASGCMARVSSDVAAAATNVSLVVLDGENIAWAHGQNAVFSPKGIAIAVDFFRKRGYRCVVFLPDYRRKRADLPTVSASDALVFVPAGEYDDTFALGYAVGHDAILVTNDLLQDHLDQFYPDEGEAREALRKWLGSHRCSFTFVGDEFLPNPHFFLP,soluble
14,MGSDKIHHHHHHMGRMKNTFPFVITISRQLGAGGAYIGQQLAKKLSIFYADREIIGQAARKLSVMEEELEPRDEKSLSLWQFLIQSCACTPETSYIPPQITVPSDRELFKTESEIITRIAQEHSTVIIGRCGSYILREHPNHVSMFLHGDLSFRKSRIQKIYHVSENVAEKMIVQSDEERSQYHYKFTGKDWADARQYGLSVNTGRTGVDKTVDCILTYLELIKVRDCIP,not soluble
15,MASKHAAKTVDPKDLSPAWKVLQMKLNEEKAEKEKAAKAEKEANPEGSDDGFTKVQTKKQKQKMNRKRRAQEALAAASEVKRVHHDIPVVIEDSERGELTKVIAIDCEYVGAGMGGTTDILARISIVNELGKIVYDKFVKPTEKVTDFRTAVSGIRPENMIKAIPFDRAQTEVSKLIDGRIVIGHAVHNDFRVLKLNHIRKLTRDTAKCTILKNMANHHGTPSLKKLAKEVLGIEIQRGEHDSITDARVALRLYEAVKKQWEAEIKRYR,not soluble
16,EGCYVATLEKCATCSQPILDRILRAMGKAYHPGCFTCVVCHRGLDGIPFTVDATSQIHCIEDFHRKFA,soluble
17,MGSDKIHHHHHHMNADTPLQLLGGLTAAEFLRDYWQRKPLLVRQAIPDFESPLSADELAGLSLEESVESRIVLEHGKTPWEMRRGPFQEEDYQHLPEQDWTLLVQAVDQFVPEVAQLLEQFRFLPSWRIDDVMISYAAPGGGVGPHFDNYDVFLLQGHGRRRWKVGQMCSSDSPLREHADLRILADFEQSDEWVLEPGDMLYLPPRLAHYGIAEDECMTYSIGFRAPSAAEVLTHFTDFLGQFLSDEERYTDAGLQPVGDDPHQIQRDALERLQGLIQEHMSDERLLLTWFGQFMTEPRYPELVAGEEIPEEELFGALEDGALLVRNPSARLAWSEIDIGLVLFASGQSVLLPGQLKELLKLVCSADALHLENLGQWLADDDARKLLAELVKQGSLEFADE,not soluble
18,MSLSELIKRLITAMTLCLTALLVHAQEWTKEDSLRLRKLLDSDQELNLNQDAVRQIDFGSAVGTPRMSVEKKWMLPDESLPEALPKPKVVLSLMPYKANTPYNWDPVFQKKIRMDKNTWRGDPHYEMRHQRSYSNWAHNPMAGGVRKSLEEIRASGVRFRQLSERANGMMVNSVVMDSPIPLFGGSGVYINGGTIGGLDLMAVFTKNFWDKKGKERRERTLEVLRTYGDSTTVLINRPIEQIAREGHHHHHH,not soluble
19,MQDNSRYTHFLTQHYDAKPQGRDDRYCESIMRRRGLTSDRCKPINTFIHGNKRSIKAICENKNGNPHRENLRISKSSFQVTTCKLHGGSPWPPCQYRATAGFRNVVVACENGLPVHLDQSIFRRP,soluble
20,MKIVTFQGGLGNQLFQYVFYLWLDMRCDKDNIYGYYPKKGLRAHNGLEIEKVFEVKLPNSSLSTDLIVKSIKLINKIFKNRQYISTDGRLDVNGVLFEGFWQDKYFWEDVDIVLNFRWPLKLDVTNSFIMTKIQANNSISIHIRRGDYLLPKYRNIYGDICNEEYYQKAIEYILKCVDDPFFFVFSDDIDWAKSIINVSNVTFVNNNKGKDSYIDMFLMSLCHHNIIANSTFSWWAAQLNKHSDKIMIAPIRWFKSLFKDPNIFTESWIRILEHHHHHH,not soluble
21,MNTENPIEKPFRKTGDPVDLTSESPLHPRRKSRRIMVGPVPVGGGAPISVQSMTNTLTANVPATLQQIAELTAAGCDIVRVAVPSQDDADALPEICRKSPIPVIADIHFQSKYVFQAIDAGCAAVRVNPGNIRKFDEVGPDICKAATDAGISLRIGVNAGSLDKELYAKYGGPTPEALVASALKEAHMFEDVGFHDFKISVKHHDVITMVETYRLLASKGDWPLHLGVTEAGPAWQGTIKSCLAFGALLAEGIGDTIRVSLSAPPAEEVKVGCKLLEYMGLRPRKFDIISCPSCGRAQVDVIQLASAVTEGLKDVTAPIRVAVMGCIVNGPGEAREADLGVASGNGKGQIFIKGKVIKTVPEDQIVDTLLTIANDIAAQMEADGQVPVNSTGPVVVPIQHPGHLEHHHHHH,not soluble
22,MPRASISDTIPMTMASIDAGSVRFTARADKRHLNPLGGVHGGFAATVLDSVTGCAIHSILEAGVGYGTVDLSVKRVKAVPEDTPLVAEGRVLHVPCAIGSQRADLMLAPPRLGRDRRCPAGLEHHHHHH,not soluble
23,MDQLSEKQIWYYHIIPEYQTEKSFYACVRRSGMIKFDTFYFPHMLSARETQRSIKFGDGVWSGCLYDPDIYTDGKISIQGVGGVLFPREAEIGGCVCLCLIFLIKLGLSTKYMKSHVSFDVSCDL,not soluble
